The results in this text go back to patent publication US20110207796A1, “ALPHA-SYNUCLEIN KINASE” (Elan Pharma International Limited, priority 2008, published 2011).

For test [1], the target named is human alpha-synuclein (wild-type, recombinant) (human). Nature of the test: cell-based or functional assay.
The target in test [2] is Polo like kinase 2 (PLK2) (human). The test is described as follows: cell-based or functional assay.

B1: Protein kinase, cGMP-dependent, regulatory, Type I (enzyme, human, UniProt Q13976-2 1-686, looked up)
chain: MGTLRDLQYALQEKIEELRQRDALIDELELELDQKDELIQKLQNELDKYRSVIRPATQQAQKQSASTLQGEPRTKRQAISAEPTAFDIQDLSHVTLPFYPKSPQSKDLIKEAILDNDFMKNLELSQIQEIVDCMYPVEYGKDSCIIKEGDVGSLVYVMEDGKVEVTKEGVKLCTMGPGKVFGELAILYNCTRTATVKTLVNVKLWAIDRQCFQTIMMRTGLIKHTEYMEFLKSVPTFQSLPEEILSKLADVLEETHYENGEYIIRQGARGDTFFIISKGTVNVTREDSPSEDPVFLRTLGKGDWFGEKALQGEDVRTANVIAAEAVTCLVIDRDSFKHLIGGLDDVSNKAYEDAEAKAKYEAEAAFFANLKLSDFNIIDTLGVGGFGRVELVQLKSEESKTFAMKILKKRHIVDTRQQEHIRSEKQIMQGAHSDFIVRLYRTFKDSKYLYMLMEACLGGELWTILRDRGSFEDSTTRFYTACVVEAFAYLHSKGIIYRDLKPENLILDHRGYAKLVDFGFAKKIGFGKKTWTFCGTPEYVAPEIILNKGHDISADYWSLGILMYELLTGSPPFSGPDPMKTYNIILRGIDMIEFPKKIAKNAANLIKKLCRDNPSERLGNLKNGVKDIQKHKWFEGFNWEGLRKGTLTPPIIPSVASPTDTSNFDSFPEDNDEPPPDDNSGWDIDF
On to B1, for which, in test [1], the percentage of phospho-synuclein by ELISA, cDNA transfected into PEAK-Syn cells was 8.9%.

B2: synphilin (protein, UniProt Q9Y6H5 1-919, looked up)
chain: MEAPEYLDLDEIDFSDDISYSVTSLKTIPELCRRCDTQNEDRSVSSSSWNCGISTLITNTQKPTGIADVYSKFRPVKRVSPLKHQPETLENNESDDQKNQKVVEYQKGGESDLGPQPQELGPGDGVGGPPGKSSEPSTSLGELEHYDLDMDEILDVPYIKSSQQLASFTKVTSEKRILGLCTTINGLSGKACSTGSSESSSSNMAPFCVLSPVKSPHLRKASAVIHDQHKLSTEETEISPPLVKCGSAYEPENQSKDFLNKTFSDPHGRKVEKTTPDCQLRAFHLQSSAAESKPEEQVSGLNRTSSQGPEERSEYLKKVKSILNIVKEGQISLLPHLAADNLDKIHDENGNNLLHIAASQGHAECLQHLTSLMGEDCLNERNTEKLTPAGLAIKNGQLECVRWMVSETEAIAELSCSKDFPSLIHYAGCYGQEKILLWLLQFMQEQGISLDEVDQDGNSAVHVASQHGYLGCIQTLVEYGANVTMQNHAGEKPSQSAERQGHTLCSRYLVVVETCMSLASQVVKLTKQLKEQTVERVTLQNQLQQFLEAQKSEGKSLPSSPSSPSSPASRKSQWKSPDADDDSVAKSKPGVQEGIQVLGSLSASSRARPKAKDEDSDKILRQLLGKEISENVCTQEKLSLEFQDAQASSRNSKKIPLEKRELKLARLRQLMQRSLSESDTDSNNSEDPKTTPVRKADRPRPQPIVESVESMDSAESLHLMIKKHTLASGGRRFPFSIKASKSLDGHSPSPTSESSEPDLESQYPGSGSIPPNQPSGDPQQPSPDSTAAQKVATSPKSALKSPSSKRRTSQNLKLRVTFEEPVVQMEQPSLELNGEKDKDKGRTLQRTSTSNESGDQLKRPFGAFRSIMETLSGNQNNNNNYQAANQLKTSTLPLTSLGRKTDAKGNPASSASKGKNKAA
B2: the percent phospho-synuclein by ELISA, PLK2, synuclein and synphilin co-transfected into HEK cells in test [2] was 83.3%.
